Source: publication PMC4990988, “Defective recognition of LC3B by mutant SQSTM1/p62 implicates impairment of autophagy as a pathogenic mechanism in ALS-FTLD” (Autophagy, 2016)

Target: LC3B (microtubule-associated protein 1 light chain 3 β) (human, UniProt Q9GZQ8 1-120)
Test: ITC; LIR peptide stock (350 µM) injected into LC3B in the cell, 298 K, 25 mM phosphate buffer, 150 mM NaCl, pH 7.5; one-site binding model
Conditions: both partners purified

Kd [µM]	Binder
3.2 ± 1.1	SGGDDDWTHLSSKEVDPSTG (source: synthetic peptide (PeptideSynthetics, purity > 98%)) [WT LIR peptide (residues 332 to 351 of human SQSTM1)]
10.9 ± 1.1	SGGDDDWTHVSSKEVDPSTG (SQSTM1/p62, human, residues 332 to 351 with the ALS-associated L341V mutation; also called L341V-mutant LIR; mutant LIR; source: synthetic peptide (PeptideSynthetics, purity > 98%)) [LIR (L341V) peptide (residues 332 to 351 of human SQSTM1 with L341V)]
